From patent publication US20210395318A1 (Molecular Partners, published 2021)

What was measured:
Assay in all cases: cell-based or functional assay
[1] = target: T1, human CD40 on primary human B cells or human monocyte-derived dendritic cells (human, UniProt P25942 21-277)
[2] = target: T1, human CD40 on primary human B cells or …; remark: listed apart in the source
[3] = target: T1, human CD40 on primary human B cells or …; remark: listed apart in the source

T1 sequence (P25942 21-277 H80K/K81H limits assumed): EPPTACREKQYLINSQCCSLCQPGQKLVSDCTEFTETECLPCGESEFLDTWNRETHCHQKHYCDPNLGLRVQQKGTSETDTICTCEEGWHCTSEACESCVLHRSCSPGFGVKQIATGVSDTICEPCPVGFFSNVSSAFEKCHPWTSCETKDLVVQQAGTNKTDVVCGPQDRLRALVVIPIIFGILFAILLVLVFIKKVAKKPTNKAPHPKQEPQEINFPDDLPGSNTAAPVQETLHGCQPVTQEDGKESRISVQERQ

Binder	Efficacy [MFI at highest dose], MFI CD86, human B cells with FAP-CHO cells, w HSA [1]	Efficacy [MFI at highest dose], MFI CD86, human B cells with FAP-CHO cells, w/o HSA [1]	Efficacy at highest dose, % CD86, human B cells with FAP-CHO cells, w HSA [1]	Efficacy at highest dose, % CD86, human B cells with FAP-CHO cells, w/o HSA [1]	EC50, % CD86, human B cells with FAP-CHO cells, w HSA [2]	EC50, % CD86, human B cells with FAP-CHO cells, w/o HSA [2]	EC50, MFI CD86, human B cells with FAP-CHO cells, w HSA [2]	EC50, MFI CD86, human B cells with FAP-CHO cells, w/o HSA [2]	Efficacy [MFI at highest dose], MFI CD86, human B cells with WT-CHO cells (no FAP), w HSA [3]	Efficacy [MFI at highest dose], MFI CD86, human B cells with WT-CHO cells (no FAP), w/o HSA [3]	Efficacy at highest dose, % CD86, human B cells with WT-CHO cells (no FAP), w HSA [3]	Efficacy at highest dose, % CD86, human B cells with WT-CHO cells (no FAP), w/o HSA [3]
AS579 (designed binder) MRGSHHHHHHGSDLGKKLLEAARAGQDDEVRELLKAGADVNAKDYFSHTPLHLAARNGHLKIVEVLLKAGADVNAKDFAGKTPLHLAAADGHLEIVEVLLKAGADVNAQDIFGKTPADIAADAGHEDIAEVLQKAAGSPTPTPTTPTPTPTTPTPTPTGSDLGKKLLEAARAGQDDEVRELLKAGADVNAKDYFSHTPLHLAARNGHLKIVEVLLKAGADVNAKDFAGKTPLHLAAADGHLEIVEVLLKAGADVNAQDIFGKTPADIAADAGHEDIAEVLQKAAGSPTPTPTTPTPTPTTPTPTPTGSDLGEKLLVAALYGQDDEVRELLKAGADVNAKDQWGLTPLHKAALQGHLEIVEVLLKAGADVNAKDERGHTPLHWAARFGHLEIVEVLLKAGADVNAQDQKGYTPADLAALWGHEDIAEVLQKAAGSPTPTPTTPTPTPTTPTPTPTGSDLGKKLLQAARAGQLDEVRELLKAGADVNAKDTWGFTPLHIAAESGHLEIVEVLLKAGADVNAKDVQGRTPLHIAAHSGHLEIVEVLLKAGADVNAKDFRGWTPLHLAAWSGHLEIVEILLKAGADVNAQDKSGKTPADLAARAGHQDIAEVLQKAAGSPTPTPTTPTPTPTTPTPTPTGSDLGKKLLQAARAGQLDEVRELLKAGADVNAKDTWGFTPLHIAAESGHLEIVEVLLKAGADVNAKDVQGRTPLHIAAHSGHLEIVEVLLKAGADVNAKDFRGWTPLHLAAWSGHLEIVEILLKAGADVNAQDKSGKTPADLAARAGHQDIAEVLQKAA	1780 MFI	4860 MFI	71.9%	83%	10.2 nM	2.27 nM	23.1 nM	10 nM	242 MFI	252 MFI	40.1%	42%
SMA014 (designed binder) MRGSHHHHHHGSDLGEKLLVAALYGQDDEVRELLKAGADVNAKDQWGLTPLHKAALQGHLEIVEVLLKAGADVNAKDERGHTPLHWAARFGHLEIVEVLLKAGADVNAQDQKGYTPADLAALWGHEDIAEVLQKAAGSPTPTPTTPTPTPTTPTPTPTGSDLGKKLLQAARAGQLDEVRELLKAGADVNAKDTWGFTPLHIAAESGHLEIVEVLLKAGADVNAKDVQGRTPLHIAAHSGHLEIVEVLLKAGADVNAKDFRGWTPLHLAAWSGHLEIVEILLKAGADVNAQDKSGKTPADLAARAGHQDIAEVLQKAA	2190 MFI	2440 MFI	47%	48.4%	6.15 nM	4.21 nM	7.7 nM	8.46 nM	310 MFI	294 MFI	13.3%	13.2%
SMA099 (designed binder) MRGSHHHHHHGSDLGKKLLEAARAGQDDEVRELLKAGADVNAKDYFSHTPLHLAARNGHLKIVEVLLKAGADVNAKDFAGKTPLHLAAADGHLEIVEVLLKAGADVNAQDIFGKTPADIAADAGHEDIAEVLQKAAGSPTPTPTTPTPTPTTPTPTPTGSDLGEKLLVAALYGQDDEVRELLKAGADVNAKDQWGLTPLHKAALQGHLEIVEVLLKAGADVNAKDERGHTPLHWAARFGHLEIVEVLLKAGADVNAQDQKGYTPADLAALWGHEDIAEVLQKAAGSPTPTPTTPTPTPTTPTPTPTGSDLGKKLLQAARAGQLDEVRELLKAGADVNAKDTWGFTPLHIAAESGHLEIVEVLLKAGADVNAKDVQGRTPLHIAAHSGHLEIVEVLLKAGADVNAKDFRGWTPLHLAAWSGHLEIVEILLKAGADVNAQDKSGKTPADLAARAGHQDIAEVLQKAAGSPTPTPTTPTPTPTTPTPTPTGSDLGKKLLQAARAGQLDEVRELLKAGADVNAKDTWGFTPLHIAAESGHLEIVEVLLKAGADVNAKDVQGRTPLHIAAHSGHLEIVEVLLKAGADVNAKDFRGWTPLHLAAWSGHLEIVEILLKAGADVNAQDKSGKTPADLAARAGHQDIAEVLQKAAGSPTPTPTTPTPTPTTPTPTPTGSDLGKKLLEAARAGQDDEVRELLKAGADVNAKDYFSHTPLHLAARNGHLKIVEVLLKAGADVNAKDFAGKTPLHLAAADGHLEIVEVLLKAGADVNAQDIFGKTPADIAADAGHEDIAEVLQKAA	1720 MFI	4950 MFI	71.7%	84.4%	7.5 nM	4.68 nM	19.4 nM	18.2 nM	274 MFI	289 MFI	42.5%	47.4%
SMA105 (designed binder) MRGSHHHHHHGSDLGEKLLVAALYGQDDEVRELLKAGADVNAKDQWGLTPLHKAALQGHLEIVEVLLKAGADVNAKDERGHTPLHWAARFGHLEIVEVLLKAGADVNAQDQKGYTPADLAALWGHEDIAEVLQKAAGSPTPTPTTPTPTPTTPTPTPTGSDLGKKLLQAARAGQLDEVRELLKAGADVNAKDTWGFTPLHIAAESGHLEIVEVLLKAGADVNAKDVQGRTPLHIAAHSGHLEIVEVLLKAGADVNAKDFRGWTPLHLAAWSGHLEIVEILLKAGADVNAQDKSGKTPADLAARAGHQDIAEVLQKAAGSPTPTPTTPTPTPTTPTPTPTGSDLGKKLLQAARAGQLDEVRELLKAGADVNAKDTWGFTPLHIAAESGHLEIVEVLLKAGADVNAKDVQGRTPLHIAAHSGHLEIVEVLLKAGADVNAKDFRGWTPLHLAAWSGHLEIVEILLKAGADVNAQDKSGKTPADLAARAGHQDIAEVLQKAAGSPTPTPTTPTPTPTTPTPTPTGSDLGKKLLQAARAGQLDEVRELLKAGADVNAKDTWGFTPLHIAAESGHLEIVEVLLKAGADVNAKDVQGRTPLHIAAHSGHLEIVEVLLKAGADVNAKDFRGWTPLHLAAWSGHLEIVEILLKAGADVNAQDKSGKTPADLAARAGHQDIAEVLQKAA	–	5560 MFI	–	87.2%	–	0.11 nM	–	0.33 nM	–	672 MFI	–	69.2%
SMA091 (designed binder) MRGSHHHHHHGSDLGKKLLEAARAGQDDEVRELLKAGADVNAKDYFSHTPLHLAARNGHLKIVEVLLKAGADVNAKDFAGKTPLHLAAADGHLEIVEVLLKAGADVNAQDIFGKTPADIAADAGHEDIAEVLQKAAGSPTPTPTTPTPTPTTPTPTPTGSDLGEKLLVAALYGQDDEVRELLKAGADVNAKDQWGLTPLHKAALQGHLEIVEVLLKAGADVNAKDERGHTPLHWAARFGHLEIVEVLLKAGADVNAQDQKGYTPADLAALWGHEDIAEVLQKAAGSPTPTPTTPTPTPTTPTPTPTGSDLGKKLLQAARAGQLDEVRELLKAGADVNAKDTWGFTPLHIAAESGHLEIVEVLLKAGADVNAKDVQGRTPLHIAAHSGHLEIVEVLLKAGADVNAKDFRGWTPLHLAAWSGHLEIVEILLKAGADVNAQDKSGKTPADLAARAGHQDIAEVLQKAAGSPTPTPTTPTPTPTTPTPTPTGSDLGKKLLQAARAGQLDEVRELLKAGADVNAKDTWGFTPLHIAAESGHLEIVEVLLKAGADVNAKDVQGRTPLHIAAHSGHLEIVEVLLKAGADVNAKDFRGWTPLHLAAWSGHLEIVEILLKAGADVNAQDKSGKTPADLAARAGHQDIAEVLQKAA	2980 MFI	6230 MFI	75.6%	78.2%	2.98 nM	0.76 nM	8.05 nM	3.93 nM	296 MFI	290 MFI	43.1%	47.8%
SMA095 (designed binder) MRGSHHHHHHGSDLGKKLLEAARAGQDDEVRELLKAGADVNAKDYFSHTPLHLAARNGHLKIVEVLLKAGADVNAKDFAGKTPLHLAAADGHLEIVEVLLKAGADVNAQDIFGKTPADIAADAGHEDIAEVLQKAAGSPTPTPTTPTPTPTTPTPTPTGSDLGEKLLVAALYGQDDEVRELLKAGADVNAKDQWGLTPLHKAALQGHLEIVEVLLKAGADVNAKDERGHTPLHWAARFGHLEIVEVLLKAGADVNAQDQKGYTPADLAALWGHEDIAEVLQKAAGSPTPTPTTPTPTPTTPTPTPTGSDLGKKLLQAARAGQLDEVRELLKAGADVNAKDTWGFTPLHIAAESGHLEIVEVLLKAGADVNAKDVQGRTPLHIAAHSGHLEIVEVLLKAGADVNAKDFRGWTPLHLAAWSGHLEIVEILLKAGADVNAQDKSGKTPADLAARAGHQDIAEVLQKAAGSPTPTPTTPTPTPTTPTPTPTGSDLGKKLLEAARAGQDDEVRELLKAGADVNAKDYFSHTPLHLAARNGHLKIVEVLLKAGADVNAKDFAGKTPLHLAAADGHLEIVEVLLKAGADVNAQDIFGKTPADIAADAGHEDIAEVLQKAA	232 MFI	773 MFI	–	28.7%	–	89.8 nM	–	288 nM	306 MFI	299 MFI	13.7%	12.5%
